Source: US20210024615A1 (LIVERPOOL SCHOOL OF TROPICAL MEDICINE, published 2021)

B1: MMR (receptor, UniProt P22897 19-1383, looked up)
chain: LLDTRQFLIYNEDHKRCVDAVSPSAVQTAACNQDAESQKFRWVSESQIMSVAFKLCLGVPSKTDWVAITLYACDSKSEFQKWECKNDTLLGIKGEDLFFNYGNRQEKNIMLYKGSGLWSRWKIYGTTDNLCSRGYEAMYTLLGNANGATCAFPFKFENKWYADCTSAGRSDGWLWCGTTTDYDTDKLFGYCPLKFEGSESLWNKDPLTSVSYQINSKSALTWHQARKSCQQQNAELLSITEIHEQTYLTGLTSSLTSGLWIGLNSLSFNSGWQWSDRSPFRYLNWLPGSPSAEPGKSCVSLNPGKNAKWENLECVQKLGYICKKGNTTLNSFVIPSESDVPTHCPSQWWPYAGHCYKIHRDEKKIQRDALTTCRKEGGDLTSIHTIEELDFIISQLGYEPNDELWIGLNDIKIQMYFEWSDGTPVTFTKWLRGEPSHENNRQEDCVVMKGKDGYWADRGCEWPLGYICKMKSRSQGPEIVEVEKGCRKGWKKHHFYCYMIGHTLSTFAEANQTCNNENAYLTTIEDRYEQAFLTSFVGLRPEKYFWTGLSDIQTKGTFQWTIEEEVRFTHWNSDMPGRKPGCVAMRTGIAGGLWDVLKCDEKAKFVCKHWAEGVTHPPKPTTTPEPKCPEDWGASSRTSLCFKLYAKGKHEKKTWFESRDFCRALGGDLASINNKEEQQTIWRLITASGSYHKLFWLGLTYGSPSEGFTWSDGSPVSYENWAYGEPNNYQNVEYCGELKGDPTMSWNDINCEHLNNWICQIQKGQTPKPEPTPAPQDNPPVTEDGWVIYKDYQYYFSKEKETMDNARAFCKRNFGDLVSIQSESEKKFLWKYVNRNDAQSAYFIGLLISLDKKFAWMDGSKVDYVSWATGEPNFANEDENCVTMYSNSGFWNDINCGYPNAFICQRHNSSINATTVMPTMPSVPSGCKEGWNFYSNKCFKIFGFMEEERKNWQEARKACIGFGGNLVSIQNEKEQAFLTYHMKDSTFSAWTGLNDVNSEHTFLWTDGRGVHYTNWGKGYPGGRRSSLSYEDADCVVIIGGASNEAGKWMDDTCDSKRGYICQTRSDPSLTNPPATIQTDGFVKYGKSSYSLMRQKFQWHEAETYCKLHNSLIASILDPYSNAFAWLQMETSNERVWIALNSNLTDNQYTWTDKWRVRYTNWAADEPKLKSACVYLDLDGYWKTAHCNESFYFLCKRSDEIPATEPPQLPGRCPESDHTAWIPFHGHCYYIESSYTRNWGQASLECLRMGSSLVSIESAAESSFLSYRVEPLKSKTNFWIGLFRNVEGTWLWINNSPVSFVNWNTGDPSGERNDCVALHASSGFWSNIHCSSYKGYICKRPKIIDAKPTHELLTTKADTRKMDPSK
B2: Siglec-1 (receptor, UniProt Q9BZZ2 20-1641, looked up)
chain: SWGVSSPQDVQGVKGSCLLIPCIFSFPADVEVPDGITAIWYYDYSGQRQVVSHSADPKLVEARFRGRTEFMGNPEHRVCNLLLKDLQPEDSGSYNFRFEISEVNRWSDVKGTLVTVTEEPRVPTIASPVELLEGTEVDFNCSTPYVCLQEQVRLQWQGQDPARSVTFNSQKFEPTGVGHLETLHMAMSWQDHGRILRCQLSVANHRAQSEIHLQVKYAPKGVKILLSPSGRNILPGELVTLTCQVNSSYPAVSSIKWLKDGVRLQTKTGVLHLPQAAWSDAGVYTCQAENGVGSLVSPPISLHIFMAEVQVSPAGPILENQTVTLVCNTPNEAPSDLRYSWYKNHVLLEDAHSHTLRLHLATRADTGFYFCEVQNVHGSERSGPVSVVVNHPPLTPVLTAFLETQAGLVGILHCSVVSEPLATLVLSHGGHILASTSGDSDHSPRFSGTSGPNSLRLEIRDLEETDSGEYKCSATNSLGNATSTLDFHANAARLLISPAAEVVEGQAVTLSCRSGLSPTPDARFSWYLNGALLHEGPGSSLLLPAASSTDAGSYHCRARDGHSASGPSSPAVLTVLYPPRQPTFTTRLDLDAAGAGAGRRGLLLCRVDSDPPARLQLLHKDRVVATSLPSGGGCSTCGGCSPRMKVTKAPNLLRVEIHNPLLEEEGLYLCEASNALGNASTSATFNGQATVLAIAPSHTLQEGTEANLTCNVSREAAGSPANFSWFRNGVLWAQGPLETVTLLPVARTDAALYACRILTEAGAQLSTPVLLSVLYPPDRPKLSALLDMGQGHMALFICTVDSRPLALLALFHGEHLLATSLGPQVPSHGRFQAKAEANSLKLEVRELGLGDSGSYRCEATNVLGSSNTSLFFQVRGAWVQVSPSPELQEGQAVVLSCQVHTGVPEGTSYRWYRDGQPLQESTSATLRFAAITLTQAGAYHCQAQAPGSATTSLAAPISLHVSYAPRHVTLTTLMDTGPGRLGLLLCRVDSDPPAQLRLLHGDRLVASTLQGVGGPEGSSPRLHVAVAPNTLRLEIHGAMLEDEGVYICEASNTLGQASASADFDAQAVNVQVWPGATVREGQLVNLTCLVWTTHPAQLTYTWYQDGQQRLDAHSIPLPNVTVRDATSYRCGVGPPGRAPRLSRPITLDVLYAPRNLRLTYLLESHGGQLALVLCTVDSRPPAQLALSHAGRLLASSTAASVPNTLRLELRGPQPRDEGFYSCSARSPLGQANTSLELRLEGVRVILAPEAAVPEGAPITVTCADPAAHAPTLYTWYHNGRWLQEGPAASLSFLVATRAHAGAYSCQAQDAQGTRSSRPAALQVLYAPQDAVLSSFRDSRARSMAVIQCTVDSEPPAELALSHDGKVLATSSGVHSLASGTGHVQVARNALRLQVQDVPAGDDTYVCTAQNLLGSISTIGRLQVEGARVVAEPGLDVPEGAALNLSCRLLGGPGPVGNSTFAWFWNDRRLHAEPVPTLAFTHVARAQAGMYHCLAELPTGAAASAPVMLRVLYPPKTPTMMVFVEPEGGLRGILDCRVDSEPLASLTLHLGSRLVASSQPQGAPAEPHIHVLASPNALRVDIEALRPSDQGEYICSASNVLGSASTSTYFGVRALHRLHQFQQ

Target: T1, IgG1-Fc (human, UniProt P01857 104-330 = IgG part)
T1 construct: domain: Fc
Assay: ELISA

| Binder | binding result |
| --- | --- |
| B1 | no binding |
| B2 | no binding |
